Measurements taken from patent EP2225268B1.

What was measured:
[1] = target: Wild-type recombinant human NGAL monomer expressed in CHO cells (human) (UniProt P80188); experiment: … sandwich CMIA, capture HYB 211-01, detection acridinium-HYB 211-02; calibrator C, NGAL 50 ng/mL
[2] = target: Wild-type recombinant human NGAL dimer expressed in CHO cells (human) (UniProt P80188); experiment: as above
[3] = target: Wild-type recombinant human NGAL dimer calibrators treated with DTT (human) (UniProt P80188); experiment: as above
[4] = target: Wild-type recombinant human NGAL monomer expressed in CHO cells (human) (UniProt P80188); experiment: … sandwich CMIA, capture HYB 211-01, detection acridinium-HYB 211-02; curve fit with monomer calibrators; target 1000 ng/mL
[5] = target: Wild-type recombinant human NGAL dimer expressed in CHO cells (human) (UniProt P80188); experiment: as above
[6] = target: Wild-type recombinant human NGAL dimer calibrators treated with DTT (human) (UniProt P80188); experiment: as above
[7] = target: Wild-type recombinant human NGAL dimer calibrators treated with DTT (human) (UniProt P80188); experiment: … sandwich CMIA, capture HYB 211-01, detection acridinium-HYB 211-02; DTT-treated against untreated dimer calibrator; target 1000 ng/mL
[8] = target: Wild-type recombinant human NGAL dimer calibrators treated with DTT (human) (UniProt P80188); experiment: … sandwich CMIA, capture HYB 211-01, detection acridinium-HYB 211-02; DTT-treated dimer calibrators against untreated dimer calibrators
[9] = target: Wild-type recombinant human NGAL dimer expressed in CHO cells (human) (UniProt P80188); experiment: … sandwich CMIA, capture HYB 211-01, detection acridinium-HYB 211-02; calibrator F, NGAL 1000 ng/mL
[10] = target: Wild-type recombinant human NGAL dimer calibrators treated with DTT (human) (UniProt P80188); experiment: as above
[11] = target: Wild-type recombinant human NGAL monomer expressed in CHO cells (human) (UniProt P80188); experiment: … sandwich CMIA, capture HYB 211-01, detection acridinium-HYB 211-02; curve fit with monomer calibrators; target 5 ng/mL
[12] = target: Wild-type recombinant human NGAL dimer expressed in CHO cells (human) (UniProt P80188); experiment: as above
[13] = target: Wild-type recombinant human NGAL dimer calibrators treated with DTT (human) (UniProt P80188); experiment: as above
[14] = target: Wild-type recombinant human NGAL dimer calibrators with TCEP in the reaction mixture (human) (UniProt P80188); experiment: … sandwich CMIA, capture 1-2322-455, detection acridinium-1-903-430; TCEP in reaction; NGAL 50 ng/mL
[15] = target: Wild-type recombinant human NGAL monomer expressed in CHO cells (human) (UniProt P80188); experiment: … sandwich CMIA, capture 1-2322-455, detection acridinium-1-903-430; monomer calibrator plus TCEP; NGAL 600 ng/mL
[16] = target: Wild-type recombinant human NGAL dimer calibrators with TCEP in the reaction mixture (human) (UniProt P80188); experiment: … sandwich CMIA, capture 1-2322-455, detection acridinium-1-903-430; TCEP in reaction; NGAL 1000 ng/mL
[17] = target: Wild-type recombinant human NGAL monomer expressed in CHO cells (human) (UniProt P80188); experiment: … sandwich CMIA, capture 1-2322-455, detection acridinium-1-903-430; NGAL 250 ng/mL
[18] = target: Wild-type recombinant human NGAL dimer expressed in CHO cells (human) (UniProt P80188); experiment: as above
[19] = target: Wild-type recombinant human NGAL dimer expressed in CHO cells (human) (UniProt P80188); experiment: … sandwich CMIA, capture 1-2322-455, detection acridinium-1-903-430; NGAL Dimer High, 1500 ng/mL dimer calibrator
[20] = target: Wild-type recombinant human NGAL dimer calibrators with TCEP in the reaction mixture (human) (UniProt P80188); experiment: … sandwich CMIA, capture 1-2322-455, detection acridinium-1-903-430; TCEP in reaction; NGAL 250 ng/mL
[21] = target: Wild-type recombinant human NGAL monomer expressed in CHO cells (human) (UniProt P80188); experiment: … sandwich CMIA, capture 1-2322-455, detection acridinium-1-903-430; NGAL 5 ng/mL
[22] = target: Wild-type recombinant human NGAL monomer expressed in CHO cells (human) (UniProt P80188); experiment: … sandwich CMIA, capture 1-2322-455, detection acridinium-1-903-430; monomer calibrator plus TCEP; NGAL 50 ng/mL

anti-NGAL antibody HYB 211-01 from AntibodyShop A/S, Gentofte, Denmark
RLUs [1]: 101000 RLUs | RLUs [2]: 31500 RLUs | RLUs [3]: 101000 RLUs | Curve Fit Results [4]: 1000 ng/mL | Curve Fit Results [5]: 245 ng/mL | Curve Fit Results [6]: 924 ng/mL | % Increase due to DTT [7]: 277% | average % increase of NGAL concentration after reduction of dimers [8]: 248% | RLUs [9]: 390000 RLUs | RLUs [10]: 855000 RLUs | Curve Fit Results [11]: 5.1 ng/mL | Curve Fit Results [12]: 1.4 ng/mL | Curve Fit Results [13]: 4.7 ng/mL

B1: antibody produced by murine hybridoma cell line 1-2322-455 having ATCC Accession No. PTA-8024 (antibody, V domains shown)
VH: EVQLVESGGGLVQPGGSLKLSCAASGFTFNNYYMSWVRQTPERRLEWVAYISSSGGSTYYSDSVRGRFTISRDTARNTLYLQMTSLKSEDTAMYYCARHFGDYSYFDYWGQGTTLTVSS
VL: DIQMTQSPASLSASVGETVTITCRASENFYSYLAWYQQKQGKSPQLLVYNAKTLAEGVPSRFSGSGSGTQFSLKINSLQPEDFGTYYCQHHYDIPLTFGAGTKLELKR
RLUs [14]: 132000 RLUs | RLUs [15]: 1.53e+06 RLUs | RLUs [16]: 1.37e+06 RLUs | RLUs [17]: 900000 RLUs | RLUs [18]: 336000 RLUs | NGAL concentration detected [19]: 309 ng/mL | RLUs [20]: 535000 RLUs | RLUs [21]: 29300 RLUs | RLUs [22]: 241000 RLUs
